In US20150033370:

Tested on: TALEN-AAVS1 (goat AAVS1 TALEN pair; left and right monomers not described separately) (synthetic construct)
Assay: cell_activity
Settings: cleavage/targeting efficiency in transfected goat fibroblasts; 6 of 8 puromycin-resistant clones correctly targeted with donor; half-sites highlighted only in …

TCCGGCTGTCTCCCTACCAGGGACACGGCAGGGCGGTGGTCAGCTCTCCTGGA (double strand) [goat AAVS1 TALEN target]
activity: 2%
